Results taken from IntAct's records for PubMed 19763089.

B1: NF-kappa-B essential modulator (Mus musculus), O88522 (parent)
chain: MNKHPWKNQLSEMVQPSGGPAEDQDMLGEESSLGKPAMLHLPSEQGTPETLQRCLEENQELRDAIRQSNQMLRERCEELLHFQVSQREEKEFLMCKFQEARKLVERLSLEKLDLRSQREQALKELEQLKKCQQQMAEDKASVKAQVTSLLGELQESQSRLEAATKDRQALEGRIRAVSEQVRQLESEREVLQQQHSVQVDQLRMQNQSVEAALRMERQAASEEKRKLAQLQAAYHQLFQDYDSHIKSSKGMQLEDLRQQLQQAEEALVAKQELIDKLKEEAEQHKIVMETVPVLKAQADIYKADFQAERHAREKLVEKKEYLQEQLEQLQREFNKLKVGCHESARIEDMRKRHVETPQPPLLPAPAHHSFHLALSNQRRSPPEEPPDFCCPKCQYQAPDMDTLQIHVMECIE

Columns and labels:
ubc_human UBC, P0CG48 [1] = variants of: B1; details: with ubc_human UBC
ubc_human UBC, P0CG48 [2] = variants of: B1; details: with ubc_human UBC; remark: listed apart in the source

Chain of ubc_human UBC, P0CG48 (P0CG48 whole entry, looked up): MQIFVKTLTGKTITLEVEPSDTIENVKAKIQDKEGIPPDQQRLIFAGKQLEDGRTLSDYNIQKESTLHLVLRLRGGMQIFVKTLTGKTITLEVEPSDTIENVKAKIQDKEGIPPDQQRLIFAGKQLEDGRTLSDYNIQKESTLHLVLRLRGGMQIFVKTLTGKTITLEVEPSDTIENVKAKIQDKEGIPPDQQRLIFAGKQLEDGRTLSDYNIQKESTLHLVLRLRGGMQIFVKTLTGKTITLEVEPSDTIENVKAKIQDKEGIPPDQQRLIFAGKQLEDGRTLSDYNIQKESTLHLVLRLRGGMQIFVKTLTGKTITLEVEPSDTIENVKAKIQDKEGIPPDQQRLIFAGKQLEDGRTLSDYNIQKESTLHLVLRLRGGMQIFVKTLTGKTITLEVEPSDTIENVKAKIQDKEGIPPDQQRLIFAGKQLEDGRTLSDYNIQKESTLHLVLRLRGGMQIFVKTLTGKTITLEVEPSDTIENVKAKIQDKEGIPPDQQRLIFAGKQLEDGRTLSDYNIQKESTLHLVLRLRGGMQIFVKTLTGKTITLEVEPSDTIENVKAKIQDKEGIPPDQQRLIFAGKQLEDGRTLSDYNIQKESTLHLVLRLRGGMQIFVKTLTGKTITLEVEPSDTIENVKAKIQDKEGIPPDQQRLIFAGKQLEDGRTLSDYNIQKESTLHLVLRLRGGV

effect of a mutation on the interaction (ubc_human UBC, P0CG48 [1])	effect of a mutation on the interaction (ubc_human UBC, P0CG48 [2])	Variant
disrupting interaction	decreasing interaction	Y301S
disrupting interaction	decreasing interaction	D304N
